Columns and labels:
EflACE2-Fc-WT (human) = EflACE2-Fc-WT (human) (UniProt Q9BYF1); assay: BLI
[1] = target: SARS-CoV-2 spike protein on Ramos-S cells (SARS-CoV-2) (UniProt P0DTC2); assay: flow cytometry on cells
[2] = target: hexahistidine tagged RBD WT (SARS CoV-2, isolate Wuhan-Hu-1, aa residues 319-541) (SARS-CoV-2) (UniProt P0DTC2); assay: peptide or protein array

## SARS-CoV-2 spike RBD (analyte of the BLI) (from UniProt P0DTC2) (domain or fragment)
EflACE2-Fc-WT (human)
  Kd: 0.7 nM

## trACE2-Fc WT (from UniProt Q9BYF1 19-615) (Fc fusion)
[1]
  median fluorescence intensity: 15500
[2]
  IC50: 114 nM

## trACE2-Fc-kif (from UniProt Q9BYF1 19-615) (Fc fusion)
[1]
  median fluorescence intensity: 16400

## EflACE2-Fc-WT (from UniProt Q9BYF1 19-740) (Fc fusion)
[1]
  median fluorescence intensity: 19600
[2]
  IC50: 10 nM

## flACE2-Fc-WT (from UniProt Q9BYF1 19-740) (Fc fusion)
[1]
  median fluorescence intensity: 17200
[2]
  IC50: 80 nM
